In patent US12129294B2, “Methods of treatment of diseases in which IL-13 activity is detrimental using anti-IL-13 antibodies” (AbbVie Inc., priority 2016, dated 2024):
Values joined by “and” are separate entries in the source; they are usually repeats but may differ in a detail not shown here. Equal values may be shown once.

Legend:
[1] = test system: subjects with symptomatic eosinophilic esophagitis (EoE); assay: Phase 2 study in EoE patients: dysphagia symptom composite diary score (daily symptom diary, DSD); format: in vivo, human; set-up: dysphagia symptom composite diary score, Mean change / dysphagia symptom composite diary score, Mean / dysphagia symptom composite diary score, Median: scale not given here; conditions: for dysphagia symptom composite diary score, Mean change / dysphagia symptom composite diary score, LSMD versus placebo: Change to Week 16
From the text: Safety was monitored throughout the study. […] The study was powered for the primary endpoint. […]

human type IL-13 = human type IL-13 (Homo sapiens, UniProt P35225, Q144R); assay: Binding of the antibody to IL-13
[2] = test system: subjects with symptomatic eosinophilic esophagitis (EoE); assay: Phase 2 study in EoE patients: EoE endoscopic reference score (EREF); format: in vivo, human; conditions: treatment with RPC4046
Procedure: Safety was monitored throughout the study. […] The study was powered for the primary endpoint.
In further analysis, the mean eosinophilic esophagitis endoscopic reference score (EREF) in subjects at week 16 was analyzed for placebo and the two treatment arms. The EREF score is an additional secondary endpoint that is evaluated based on the presence of inflammatory markers (e.g., being positive for edema, exudates and/or furrows) and/or remodeling markers (e.g., being positive for fixed rings and/or strictures).
The results of the EREF study was further inspected by analyzing composite EREF score for inflammatory markers or remodeling markers.

Chain of human type IL-13 (P35225 15-146 Q144R limits assumed): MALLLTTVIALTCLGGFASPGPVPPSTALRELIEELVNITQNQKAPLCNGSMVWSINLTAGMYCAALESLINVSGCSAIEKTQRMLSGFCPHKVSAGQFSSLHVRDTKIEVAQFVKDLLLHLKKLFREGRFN

B1: RPC4046: recombinant humanized, high-affinity, selective anti-IL-13 monoclonal antibody; heavy chain variable region SEQ ID NO: 2, light chain variable region SEQ ID NO: 3 (antibody, V domains shown)
VH: EVTLRESGPGLVKPTQTLTLTCTLYGFSLSTSDMGVDWIRQPPGKGLEWLAHIWWDDVKRYNPALKSRLTISKDTSKNQVVLKLTSVDPVDTATYYCARTVSSGYIYYAMDYWGQGTLVTVSS
VL: DIQMTQSPSSLSASVGDRVTISCRASQDIRNYLNWYQQKPGKAPKLLIFYTSKLHSGVPSRFSGSGSGTDYTLTISSLQPEDIATYYCQQGNTLPLTFGGGTKVEIK
- dysphagia symptom composite diary score, Mean ([1]; 180 mg, ITT, Baseline): 27.63 and 27.6
- dysphagia symptom composite diary score, Median ([1]; 180 mg, ITT, Baseline): 28.5
- dysphagia symptom composite diary score, Mean change ([1]; 180 mg, ITT): −5.3
- dysphagia symptom composite diary score, LSMD versus placebo ([1]; 180 mg, ITT, ANCOVA): 0.02
- dysphagia symptom composite diary score, Mean ([1]; 180 mg, ITT, Week 16): 21.9
- dysphagia symptom composite diary score, Median ([1]; 180 mg, ITT, Week 16): 26.1
- dysphagia symptom composite diary score, Mean change ([1]; 180 mg, non-steroid-refractory pts): −10.0
- dysphagia symptom composite diary score, LSMD versus placebo ([1]; 180 mg, non-steroid-refractory): 0.93
- dysphagia symptom composite diary score, Mean change ([1]; 180 mg, steroid-refractory pts): −1.3
- dysphagia symptom composite diary score, LSMD versus placebo ([1]; 180 mg, steroid-refractory): −1.3
- dysphagia symptom composite diary score, Mean ([1]; 360 mg, ITT, Baseline): 29.03 and 29
- dysphagia symptom composite diary score, Median ([1]; 360 mg, ITT, Baseline): 27.5
- dysphagia symptom composite diary score, Mean change ([1]; 360 mg, ITT): −13.3
- dysphagia symptom composite diary score, LSMD versus placebo ([1]; 360 mg, ITT, ANCOVA): −6.50
- dysphagia symptom composite diary score, Mean ([1]; 360 mg, ITT, Week 16): 15.3
- dysphagia symptom composite diary score, Median ([1]; 360 mg, ITT, Week 16): 6.2
- dysphagia symptom composite diary score, Mean change ([1]; 360 mg, non-steroid-refractory pts): −14.0
- dysphagia symptom composite diary score, LSMD versus placebo ([1]; 360 mg, non-steroid-refractory): −3.1
- dysphagia symptom composite diary score, Mean change ([1]; 360 mg, steroid-refractory pts): −12.3
- dysphagia symptom composite diary score, LSMD versus placebo ([1]; 360 mg, steroid-refractory): −12.0
- mean dysphagia symptom composite diary score at week 16 compared to the controls ([1]; both low dose (180 mg) and high dose (360 mg)): reduction
- mean dysphagia symptom composite diary score in steroid-refractory subjects ([1]; subgroup analysis, 180 mg and 360 mg, week 16): dose-dependent reduction
- benefit on dysphagia composite diary score, steroid refractory versus non-steroid-refractory subgroup ([1]; subgroup analysis, over 16 weeks): steroid refractory sub-group benefited more
- binding to human type IL-13 (human type IL-13): binds to human type IL-13
- selectivity for IL-13 (human type IL-13): highly selective for IL-13
- EREF total score at week 16 [2]: net lowering of EREF score
